Data as given in PMC8860611.

Biological target: native CA lattice tubes (HIV-1, UniProt P12493 133-363)
Assay: filter binding

B1: CA15-2 (1-104) (structured_RNA)
RNA: GGAAGAAGAGAAUCAUACACAAGAUCGACGUACCUCAGGGUGGUGUAUGACUGAGGUGAAGACUGUGAACCAUGGCAUGCGGGCAUAAGGUAGGUAAGUCCAUA
binding result: binds
